# PMC4010391, “Mammalian TBX1 Preferentially Binds and Regulates Downstream Targets Via a Tandem T-site Repeat”
# T1: GST-TBX1 T-box (Mus musculus, UniProt P70323 90-303)
# T1 sequence: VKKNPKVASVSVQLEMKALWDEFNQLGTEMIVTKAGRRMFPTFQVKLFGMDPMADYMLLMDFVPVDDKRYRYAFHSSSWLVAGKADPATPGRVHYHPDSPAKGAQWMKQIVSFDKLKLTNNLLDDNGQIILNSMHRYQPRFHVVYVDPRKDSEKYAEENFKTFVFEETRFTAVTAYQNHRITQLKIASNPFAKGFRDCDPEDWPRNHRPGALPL
# Molecular target: T1, GST-TBX1 T-box
# Experiment: EMSA; 6 h exposure; EMSA, 12.5 ul, GST-TBX1 5-25 ug, HEPES/MgCl2/KCl/DTT/EDTA/glycerol buffer (stock concentrations only, pH not given), 1 ug/ul poly(dI-dC), Ficoll, room temperature, 10 min + 10 min, 5% acrylamide gel
# Conditions: protein: recombinant; tags: N-terminal GST (pGEX4t3); chain copies: 2; label: 5'-32P
binder,measurement,value
Brachyury palindrome probe (Fig S1) (dsDNA) DNA 1: CTAGATTTCACACCTAGGTGTGAAATCTAG DNA 2: CTAGATTTCACACCTAGGTGTGAAATCTAG,binding result,binds
